The target of experiment [1] is T1, CD24裸肽 (CD24 naked peptide, SPR analyte) (human, UniProt P25063 27-59, limits assumed).
T1 construct: also called 抗原CD24
T1 peptide (looked up): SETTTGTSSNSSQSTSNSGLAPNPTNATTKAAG
Nature of the experiment: SPR (Biacore X100), cG7-sTGFBR2 captured by anti-human IgG(Fc) on a CM5 chip, CD24 naked peptide as analyte, 25℃. In general terms: Surface plasmon resonance follows binding to a sensor surface in real time, without labels.

Another experiment concerns the target 转化生长因子-β1 (TGF-β1) (human, UniProt P01137 279-390). The experiment can be described thus: SPR (Biacore X100), cG7-sTGFBR2 captured by anti-human IgG(Fc) on a CM5 chip, TGF-β1 as analyte, 25℃.

Chain of 转化生长因子-β1 (TGF-β1) (P01137 279-390 limits assumed): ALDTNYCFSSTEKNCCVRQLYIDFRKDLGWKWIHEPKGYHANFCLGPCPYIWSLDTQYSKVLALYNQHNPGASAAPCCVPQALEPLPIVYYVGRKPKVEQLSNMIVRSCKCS

B1: 靶向CD24的双特异性融合抗体cG7-sTGFBR2 (anti-CD24 humanized chimeric antibody cG7 fused at the heavy chain C-terminus via Gly4Ser to the human TGFBR2 extracellular domain … (bispecific antibody, human IgG1, kappa)
heavy: not shown
light: DIVMTQTPLSLSVTIGQPASISCKSSQSLLHSDGKTYLNWLLQRPGQSPKRLIYLVSKLDSGVPDRFTGSGSGTDFTLKVSRVEAEDLGVYYCWQGAHFPYTFGGGTKLEIKVDTVAAPSVFIFPPSDEQLKSGTASVVCLLNNFYPREAKVQWKVDNALQSGNSQESVTEQDSKDSTYSLSSTLTLSKADYEKHKVYACEVTHQGLSSPVTKSFNRGEC
notes: also called 融合双特异性抗体cG7-sTGFBR2
In experiment [1], B1 had a Kd of 0.122 nM, a koff of 1.14e-05 s⁻¹ and a kon of 93700 M⁻¹ s⁻¹. Also, in the experiment with 转化生长因子-β1 (TGF-β1), the Kd came to 55.5 nM, the koff amounted to 0.0636 s⁻¹ and the kon was found to be 1.15e+06 M⁻¹ s⁻¹.

Usually Kd stands for the equilibrium constant for the complex coming apart. Read a high Kd as weaker binding. As a reminder, the koff is the rate constant with which the complex falls apart. Higher therefore signals a short-lived complex. In general, kon refers to a measure of how fast the partners come together. Read a high kon as faster complex formation.

(Values after patent CN110964118A (UNIV CHINA PHARMA, dated 2020).)
